Measured values as given in patent CN114907476A (SHANGHAI PHARMACEUTICALS HOLDING CO LTD, dated 2022).
Residue numbers refer to the chain shown, from its start.

B1: 阳性对照抗体P1 (antibody, human IgG1, kappa, V domains shown)
VH: QVQLQESGPGLVKPSETLSLTCTVSGGSVSSGIYYWSWIRQPPGKGLEWIGYIYYSGSTNYNPSLKSRVTISVDTSKNQFSLKLSSVTAADTAVYYCARDYYVSGNYYNVDYYFFGVDVWGQGTTVTVSS
VL: EIVLTQSPATLSLSPGERATLSCRASQSVSSYLAWYQQKPGQAPRLLIYDASNRATGIPARFSGSGSGTDFTLTISSLEPEDFAVYYCQQRSNWPPLFTFGPGTKVDIKR
notes: Positive control anti-TIGIT antibody
B2: 阳性对照抗体P4 (antibody, human IgG1, kappa, V domains shown)
VH: EVQLQQSGPGLVKPSQTLSLTCAISGDSVSSNSAAWNWIRQSPSRGLEWLGKTYYRFKWYSDYAVSVKGRITINPDTSKNQFSLQLNSVTPEDTAVFYCTRESTTYDLLAGPFDYWGQGTLVTVSS
VL: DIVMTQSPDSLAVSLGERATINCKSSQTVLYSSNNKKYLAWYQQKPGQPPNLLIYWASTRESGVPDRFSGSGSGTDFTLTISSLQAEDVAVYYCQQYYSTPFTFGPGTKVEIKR
notes: as for B1
B3: 嵌合抗TIGIT抗体A0 (antibody, human IgG1, kappa, V domains shown)
VH: ELQLQQSGPELVKPGASVKISCKASGYSFTDYNMNWVKQSNGKSLEWIGVINPNHGTISYNQKFKGKATLTVDQSSSTAYMQLNSLTSEDSAVYYCANNWDVWYFDVWGTGTTVTVSS
VL: DIQMTQSPASLSASVGETVTITCRPSENIYSYLAWYRQKQGNSPQLLVYNAKALAEGVPSRFSGSGSGTQFSLKINSLQPEDFGSYYCQHHFGAPWTFGGGTKLEIKR
notes: also called B011-A-142E4C5
B4: 人源化抗TIGIT抗体A2 (antibody, human IgG1, kappa, V domains shown)
VH: QLQLVQSGAEVKKPGASVKVSCKASGYSFTDYNMNWVRQAPGQSLEWIGVINPNHGTISYNQKFKGRVTMTRDQSTSTAYMELNSLRSEDTAVYYCANNWDVWYFDVWGQGTLVTVSS
VL: DIQMTQSPSSLSASVGDRVTITCRPSENIYSYLAWYQQKPGKAPKLLVYNAKALAEGVPSRFSGSGSGTDFTLTISSLQPEDFATYYCQHHFGAPWTFGQGTKVEIKR
notes: Humanized
B5: 人源化抗TIGIT抗体A4 (antibody, human IgG1, kappa, V domains shown)
VH: B4 VH
VL: B4 VL with K42N, A43S, D70Q, Q100G
notes: Humanized
B6: 人源化抗TIGIT抗体A1 (antibody, human IgG1, kappa, V domains shown)
VH: B4 VH
VL: B4 VL with V48I
notes: Humanized
B7: 人源化抗TIGIT抗体A3 (antibody, human IgG1, kappa, V domains shown)
VH: B4 VH
VL: B4 VL with K42N, D70Q
notes: Humanized

target: T1, 表达于CHOK1细胞表面的人TIGIT (CHOK1/人TIGIT细胞, 吉满生物 GM-C01116) (human, UniProt Q495A1 22-244); assay: flow cytometry competition, EC50 of % inhibition of Biotinylated-CD155 (0.6μg/ml) binding to CHOK1/human TIGIT cells
T1 construct: whole, on cells; Purchased cell line; also called CHOK1/hTIGIT
T1 sequence (looked up): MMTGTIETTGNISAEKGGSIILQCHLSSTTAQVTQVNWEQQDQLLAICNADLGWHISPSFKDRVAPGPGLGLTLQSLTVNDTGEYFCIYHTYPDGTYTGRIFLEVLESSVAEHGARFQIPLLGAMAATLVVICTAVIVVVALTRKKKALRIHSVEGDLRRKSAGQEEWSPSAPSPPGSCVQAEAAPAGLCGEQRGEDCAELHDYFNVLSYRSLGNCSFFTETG

Going from B1 to B2, the EC50 falls from 0.189 µg/mL to 0.103 µg/mL (1.8-fold).

Work on B3 yielded an EC50 of 0.138 µg/mL.

target: T2, SPH-B011-A-Antigen-his蛋白 (人TIGIT) (human, UniProt Q495A1 22-141, limits assumed); assay: Biacore, antibody captured on anti-Fc CM5 chip, human TIGIT-his 100nM as analyte, 25℃
T2 construct: Analyte of the Biacore assay; also called 抗原(人TIGIT); not shown: his tag
T2 sequence (looked up): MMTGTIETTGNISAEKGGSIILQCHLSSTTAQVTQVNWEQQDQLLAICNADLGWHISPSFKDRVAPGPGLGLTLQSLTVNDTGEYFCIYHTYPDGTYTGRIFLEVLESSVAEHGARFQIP

B4 and B5 are within 1.5-fold of each other in Kd: 4.3 nM for the first, 4.85 nM for the second.

B6 and B7 are within 1.5-fold of each other in Kd: 4.62 nM for the first, 4.66 nM for the second.

B4 and B5 are within 1.5-fold of each other in koff: 0.00241 s⁻¹ for the first, 0.00257 s⁻¹ for the second.

B6 and B7 are within 1.5-fold of each other in koff: 0.00251 s⁻¹ for the first, 0.00225 s⁻¹ for the second.

B4 and B5 are within 1.5-fold of each other in kon: 560000 M⁻¹ s⁻¹ for the first, 529000 M⁻¹ s⁻¹ for the second.

B6 and B7 are within 1.5-fold of each other in kon: 544000 M⁻¹ s⁻¹ for the first, 483000 M⁻¹ s⁻¹ for the second.

target: T1, 表达于CHOK1细胞表面的人TIGIT (CHOK1/人TIGIT细胞, …); assay: flow cytometry on CHOK1/hTIGIT cells

Going from B1 to B2, the 最大MFI falls from 13500 MFI to 10300 MFI.

Compared with B3, B4 is higher in 最大MFI: 9890 MFI for the first, 10600 MFI for the second.

First: B5
Second: B6
The 最大MFI of the first is lower: 10100 MFI for the first, 10800 MFI for the second.

B7 showed a 最大MFI of 10200 MFI.

target: T1, 表达于CHOK1细胞表面的人TIGIT (CHOK1/人TIGIT细胞, …); assay: flow cytometry on CHOK1/hTIGIT cells, EC50 of MFI

B1 and B2 are within 1.5-fold of each other in EC50: 0.264 µg/mL for the first, 0.214 µg/mL for the second.

Going from B3 to B4, the EC50 rises from ~0.139 µg/mL to 0.312 µg/mL (2.2-fold).

B5 and B6 are within 1.5-fold of each other in EC50: 0.496 µg/mL for the first, 0.36 µg/mL for the second.

B7 showed an EC50 of 0.329 µg/mL.

target: T1, 表达于CHOK1细胞表面的人TIGIT (CHOK1/人TIGIT细胞, …); assay: flow cytometry competition, EC50 of % inhibition of Biotinylated-CD155 (0.6μg/ml) binding to CHOK1/hTIGIT cells

B1 and B2 are within 1.5-fold of each other in EC50: 0.306 µg/mL for the first, 0.309 µg/mL for the second.

B3 and B4 are within 1.5-fold of each other in EC50: 0.384 µg/mL for the first, 0.406 µg/mL for the second.

First: B5
Second: B6
The EC50 of the first is 1.6-fold lower: 0.27 µg/mL for the first, 0.43 µg/mL for the second.

In the case of B7, the EC50 is reported as 0.427 µg/mL.

target: Jurkat-hTIGIT-NFAT-CD226细胞上过表达的人TIGIT (human); assay: cell-based or functional assay
Sequence (Q495A1 whole entry): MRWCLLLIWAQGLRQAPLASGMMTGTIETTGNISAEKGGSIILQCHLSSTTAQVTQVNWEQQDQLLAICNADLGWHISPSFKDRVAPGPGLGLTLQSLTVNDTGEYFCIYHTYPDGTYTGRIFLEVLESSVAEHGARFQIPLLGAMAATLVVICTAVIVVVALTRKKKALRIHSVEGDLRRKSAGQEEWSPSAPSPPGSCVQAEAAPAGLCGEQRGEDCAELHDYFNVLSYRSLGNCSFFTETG

B1 and B2 are within 1.5-fold of each other in “EC50(μg/ml)of RLU” value: 0.305 µg/mL for the first, 0.357 µg/mL for the second.

B3 and B4 are within 1.5-fold of each other in “EC50(μg/ml)of RLU” value: 1.32 µg/mL for the first, 1.01 µg/mL for the second.

B5 and B6 are within 1.5-fold of each other in “EC50(μg/ml)of RLU” value: 0.847 µg/mL for the first, 1.18 µg/mL for the second.

For B7, the “EC50(μg/ml)of RLU” value was 0.782 µg/mL.

Compared with B1, B2 is lower in “Max RLU” value: 10500 RLU for the first, 9610 RLU for the second.

Compared with B3, B4 is lower in “Max RLU” value: 9270 RLU for the first, 9210 RLU for the second.

Going from B5 to B6, the “Max RLU” value rises from 8810 RLU to 8950 RLU.

For B7, the “Max RLU” value was 9370 RLU.

target: Jurkat-hTIGIT-NFAT-CD226细胞上过表达的人TIGIT (human); assay: cell-based or functional assay; remark: another data set of the same source

B1 and B2 are within 1.5-fold of each other in “EC50(μg/ml)of RLU” value: 0.633 µg/mL for the first, 0.534 µg/mL for the second.

B3 was tested, and the “EC50(μg/ml)of RLU” value was 0.922 µg/mL.

First: B1
Second: B2
The 最大RLU of the first is higher: 9080 RLU for the first, 8840 RLU for the second.

B3 showed a 最大RLU of 8260 RLU.

target: T1, 表达于CHOK1细胞表面的人TIGIT (CHOK1/人TIGIT细胞, …); assay: flow cytometry competition, inhibition of Biotinylated-CD155 (0.6μg/ml) binding to CHOK1/human TIGIT cells

Going from B1 to B2, the 最大抑制 rises from 99.7% to 100%.

Work on B3 yielded a 最大抑制 of 99.8%.

target: T1, 表达于CHOK1细胞表面的人TIGIT (CHOK1/人TIGIT细胞, …); assay: flow cytometry competition, inhibition of Biotinylated-CD155 (0.6μg/ml) binding to CHOK1/hTIGIT cells

B1 and B2 are the same in 最大抑制: 100% for the first, 100% for the second.

Compared with B3, B4 is higher in 最大抑制: 99.2% for the first, 99.6% for the second.

First: B5
Second: B6
The 最大抑制 of the first is higher: 99.5% for the first, 99.3% for the second.

For B7, the 最大抑制 was 99.6%.
